This series is described as follows: yeast display, Sf9 membrane polyspecificity reagent, FACS + sequencing; frameworks hold sequencing errors. A digest of the protocol: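 Using colony PCR, genes from sorted yeast display clones were amplified, then sequenced on MiSeq at 2 × 250 and filtered by CDR length. The clones had been stained with 10% biotinylated, detergent-solubilized Sf9 membrane reagent for 1 hour at 4 °C and sorted by FACS into low and high (top ~1%) gates on anti-HA and streptavidin fluorescence. Polyreactivity labels come from the gate of origin.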
For the sequence “QVQLVESGGGLVQAGGSLRLSCAASGSIFVLNAMGLYRQAPGKERELVAGISSSGGSTYYADSVKGRFTISRDNAKNTVYLQMNSLKPEDTAVYYFAKDAGLYEGDYWGQGTQVTVSS”, the “polyreactivity (PSR sort gate)” value is reported as “low polyreactivity”.

In the case of “QVQLVESGGGLVQAGGSLRLSCAASGSIFVLNAMGWYRQAPGKERELGAAITNVGSTYYADSVKGRFTISRDNAKNTVYLQMNSLKPEDTAVYYCNAVLAPGGYDYWGQGTQVTVSS”, the “polyreactivity (PSR sort gate)” value is “low polyreactivity”.

As for “QVQLVESGGGLVQAGGSLRLSCAASGSIFVLYAMGWYRQAPGKERELVAAINYDGASTYYADSVKGRFTISRDNAKNTVYLQMNSLKREDTAVYYCAKRFGPAYFRLYDYWGQGTQVTVSS”, the “polyreactivity (PSR sort gate)” value was “low polyreactivity”.

Regarding “QVQLVESGGGLVQAGGSLRLSCAASGSIFVNNAMGLYRQAPGKERELVAAISSRSSRTFYADSVKGRFTISRDYAKNTVYLQMNSLKPEDTAVYYCAAELYGLKYGYYLSYDYWGQGTQVTVSS”, the “polyreactivity (PSR sort gate)” value is on record as “high polyreactivity”.

Consider “QVQLVESGGGLVQAGGSLRLSCAASGSIFVNYAMGWFRQAPGKERELVAAITRSGGRTYYADSVKGRFTISRDNAKNTVYLQMNSLKPEDTAVYYCAARLGYAGNRDGSWGQGTQVTVSS”, for which the “polyreactivity (PSR sort gate)” value is “high polyreactivity”.

“QVQLVESGGGLVQAGGSLRLSCAASGSIFVNYAMGWYRQAPGKERELVAAISRSGGRTYYADSVKGRFTISRDNAKNTVYLQMNSLKPEDTAVYDCNVYPVLRTIEGDYWGQGTQVTVSS”: the “polyreactivity (PSR sort gate)” value is listed as “high polyreactivity”.

Turning to “QVQLVESGGGLVQAGGSLRLSCAASGSIFVPNAMGWSRQALGKERELVAAITYSGVDTYYADSVKGRFTISRDNAKNTVYLQMNSLKPEDTAVYYCAADNGRVGYDYWGQGTQVTVSS”, the “polyreactivity (PSR sort gate)” value is “low polyreactivity”.

Regarding “QVQLVESGGGLVQAGGSLRLSCAASGSIFVPNTMGWYRQAPGKERELVAVISRSGGSTNYADSVKGRFTISRDNAKNTVYLQMNSLKPEDTAVYYCNADDGYSVWGYDYWGQGTQVTVSS”, the “polyreactivity (PSR sort gate)” value is recorded as “low polyreactivity”.

“QVQLVESGGGLVQAGGSLRLSCAASGSIFVPYAMGWYRQAPGKEREFVAVISLRGSRTYYADSVKGRFTISRDNAKNTVYLQMNSLKPEDTAVYYCATTGYRLRQATRYDYWGQGTQVTVSS”: the “polyreactivity (PSR sort gate)” value is “high polyreactivity”.

Turning to “QVQLVESGGGLVQAGGSLRLSCAASGSIFVPYAMGWYRQAPGKERELVAAISSSTASTYYADSVKGRFTISRDNAKNTVYLQMNRLKPEETAVYYFNAEQWDYGVRVAHYDYWGQGTQVTVSS”, the “polyreactivity (PSR sort gate)” value is “low polyreactivity”.

On to “QVQLVESGGGLVQAGGSLRLSCAASGSIFVPYAMGWYRQAPGKERELVAGINWSSGRTYYADSVKGRFTISRDNAKNTVYLQMNSLKPEDTAVYYCAAEKYTTYSFYHVAYDYWGQGTQVTVSS”, for which the “polyreactivity (PSR sort gate)” value is given as “high polyreactivity”.

As for “QVQLVESGGGLVQAGGSLRLSCAASGSIFVPYAMGWYRQAPGKERELVATITISGGSTYYADSVKGRFTISRDNAKNTVYLQMNSLKPEDTAVYYCAAETTASYYKRTDDYDYWGQGTQVTVSS”, the “polyreactivity (PSR sort gate)” value is given as “low polyreactivity”.

Consider “QVQLVESGGGLVQAGGSLRLSCAASGSIFVRNAMGWYRQAPGKERELVAADSVKGRFTISRDNAKNTVYLQMNSLKPEDTAVYYCNKDYIIRRGPIVYYGFDYWGQGTQVTVSS”, for which the “polyreactivity (PSR sort gate)” value was “low polyreactivity”.

On to “QVQLVESGGGLVQAGGSLRLSCAASGSIFVRNAMGWYRQAPGKERELVATITRRGGRTYYADSVKGRFTISRDNAKNTVYLQMNSLKPEDTAVYYCAARVRTATRRFTSYYWGQGTQVTVSS”, for which the “polyreactivity (PSR sort gate)” value is reported as “high polyreactivity”.

Take “QVQLVESGGGLVQAGGSLRLSCAASGSIFVRYAMGGYRQAPGKERELVASIRSRGDSTYYADSVKGRFTISRDNAKNTVYLQMISLKPEDTAVYFFADRRYPPRMDYWGQGTQVTVSS”: the “polyreactivity (PSR sort gate)” value is “high polyreactivity”.

For the sequence “QVQLVESGGGLVQAGGSLRLSCAASGSIFVRYAMGWYRQAPGKERELVAAISSGGRTYYADSVKGRFTISRDNAKNTVYLQMNSLKPEDTAVYYCNAVKRVPSLGPYDYWGQGTQVTVSS”, the “polyreactivity (PSR sort gate)” value is given as “high polyreactivity”.

As for “QVQLVESGGGLVQAGGSLRLSCAASGSIFVSNAMGWYRQAPGKERELVAAISSGGSTNYADSVKGRFTISRDNAKNTVYLQMNSLKPEDTAVYYCAARYYGYAGRFDYWGQGTQVTVSS”, the “polyreactivity (PSR sort gate)” value is “low polyreactivity”.

In the case of “QVQLVESGGGLVQAGGSLRLSCAASGSIFVSNARVWYRQAPGKERELVAANTSSGSTDYADSVKGRFTISRANAKNTVYLQMNSLKPEDTAVYYCAAESYHTFFLWSLNDSWGQGTQVTVSS”, the “polyreactivity (PSR sort gate)” value is reported as “low polyreactivity”.

Take “QVQLVESGGGLVQAGGSLRLSCAASGSIFVSYTMGWYRQAPGKERELVAAITRSGGSTYYADSVKGRFTISRDNAKNTVYLQMNSLKPEDTAVYYCAAGTVDYRGYFEMYFWGQGTQVTVSS”: the “polyreactivity (PSR sort gate)” value was “low polyreactivity”.

With “QVQLVESGGGLVQAGGSLRLSCAASGSIFVSYTMGWYRQPPGKERELVAAISGGGASTYYADSVKGRFTISRDNAKNTVYLQMNSLKPEDTAVYYCNASRKRSYDYWGQGTQVTVSS”, the “polyreactivity (PSR sort gate)” value is “low polyreactivity”.

In the case of “QVQLVESGGGLVQAGGSLRLSCAASGSIFVTNAMGWYRQAPGKERELVAAISNSGSSTYYADSVKGRFTISRDNAKNTVYLQMNSLKPEDTAVYYCAADWYGVTGSYYYWGQGTQVTVSS”, the “polyreactivity (PSR sort gate)” value is listed as “high polyreactivity”.

With “QVQLVESGGGLVQAGGSLRLSCAASGSIFVTNAMGWYRQAPGKERELVAAISWRGGSTYYADSVKGRFTISRDNAKNTVYLQMNSLKPEDTAVYYCNTYHPYWGSGFDYWGQGTQVTVSS”, the “polyreactivity (PSR sort gate)” value was “low polyreactivity”.

Regarding “QVQLVESGGGLVQAGGSLRLSCAASGSIFVTNAMGWYRQAPGKERELVAAISWRGGSTYYADSVKGRFTISRDNAKNTVYLQMNSLKPEDTGVYDCNTYHPYWGSGFDYWGLGTQVTVSS”, the “polyreactivity (PSR sort gate)” value is “low polyreactivity”.

For the sequence “QVQLVESGGGLVQAGGSLRLSCAASGSIFVTNAMGWYRQAPGKEREMVATITSSGSTNYADSVKGRFTISRDNAKNTVYLQMNSLKPEDTAVYYCAKRWLWYYWGFAPSDYWGQGTQVTVSS”, the “polyreactivity (PSR sort gate)” value is listed as “low polyreactivity”.

Turning to “QVQLVESGGGLVQAGGSLRLSCAASGSIFVTNGMGWYRQAPGKERELVAVISWGGGNTYYADSVKGRFTISRDNAKNTVYLLMNNLKPEDTAVYYCAVELYWDYYFTYGYWGKGTQVTVSS”, the “polyreactivity (PSR sort gate)” value was “low polyreactivity”.

On to “QVQLVESGGGLVQAGGSLRLSCAASGSIFVTYAMGGYRQAPGKERELVAAISTSGGSTYADSVKGRFTISRDNAKNTVYLQMNSLKPEDTAVYYCNADDPGYAVPWYWFKFDYWGQGTQVTVSS”, for which the “polyreactivity (PSR sort gate)” value is “low polyreactivity”.

In the case of “QVQLVESGGGLVQAGGSLRLSCAASGSIFVTYAMGLYRQAPGKERELVAAITSSDRTKYADSVKGRFTISRDNAKNTVYVQMHSLKPEDTAVYYGAKVVRTRYYGGYDYWGQVTQVTVSS”, the “polyreactivity (PSR sort gate)” value is reported as “high polyreactivity”.

Take “QVQLVESGGGLVQAGGSLRLSCAASGSIFVTYDMGWYRQAPGKERELVAGISGSGSTYYADSVKGRFTISRDNAKNTVYLQMNSLKPEDTAGYYCAAVWSRFLISYSTGWWFEYWGQGTQVTVSS”: the “polyreactivity (PSR sort gate)” value was “low polyreactivity”.

“QVQLVESGGGLVQAGGSLRLSCAASGSIFVVYAMGWYRQAPGKARALVAAITSDDDTNYADSVKGRFTLSRDNAKNTVYLQMNSLKPEDTAVYYCAKEVWLAINTRTGYEVYYWGQGTQVTVTS”: the “polyreactivity (PSR sort gate)” value is listed as “low polyreactivity”.

With “QVQLVESGGGLVQAGGSLRLSCAASGSIFVWNAMGWYRPAPGKERELVAAISYTDGSTYYADSVKGRFTISRDNAKNTVYLQMNSLKPVDTAVYYCAAAITPSYTGSEYDYWGQGTQVTVSS”, the “polyreactivity (PSR sort gate)” value was “low polyreactivity”.

These data come from the nanobody polyreactivity screen of Harvey et al. (2022).
